Laboratory results from PMC7469494 (Autophagy, 2019).

Legend:
Vac8[40–578] = molecular target: T1, Vac8[40–578] (S. cerevisiae, UniProt P39968 40-578); experiment: SAXS
T1 sequence (looked up): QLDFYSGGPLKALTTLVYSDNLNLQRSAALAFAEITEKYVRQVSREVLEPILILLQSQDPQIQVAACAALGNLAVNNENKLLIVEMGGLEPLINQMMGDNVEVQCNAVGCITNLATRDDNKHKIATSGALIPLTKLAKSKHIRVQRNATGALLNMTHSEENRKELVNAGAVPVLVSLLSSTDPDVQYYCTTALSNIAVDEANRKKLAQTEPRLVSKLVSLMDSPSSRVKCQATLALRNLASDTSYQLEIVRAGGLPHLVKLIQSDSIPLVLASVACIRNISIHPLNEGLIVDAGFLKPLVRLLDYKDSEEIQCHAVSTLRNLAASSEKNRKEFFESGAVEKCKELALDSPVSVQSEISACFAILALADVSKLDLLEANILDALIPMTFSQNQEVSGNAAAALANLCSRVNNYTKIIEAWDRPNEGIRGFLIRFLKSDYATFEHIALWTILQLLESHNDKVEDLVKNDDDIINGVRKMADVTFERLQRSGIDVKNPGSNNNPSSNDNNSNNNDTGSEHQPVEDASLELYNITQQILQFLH

Vac8[40–515] = molecular target: T2, Vac8[40–515] (S. cerevisiae, UniProt P39968 40-515); experiment: SEC
T2 sequence (looked up): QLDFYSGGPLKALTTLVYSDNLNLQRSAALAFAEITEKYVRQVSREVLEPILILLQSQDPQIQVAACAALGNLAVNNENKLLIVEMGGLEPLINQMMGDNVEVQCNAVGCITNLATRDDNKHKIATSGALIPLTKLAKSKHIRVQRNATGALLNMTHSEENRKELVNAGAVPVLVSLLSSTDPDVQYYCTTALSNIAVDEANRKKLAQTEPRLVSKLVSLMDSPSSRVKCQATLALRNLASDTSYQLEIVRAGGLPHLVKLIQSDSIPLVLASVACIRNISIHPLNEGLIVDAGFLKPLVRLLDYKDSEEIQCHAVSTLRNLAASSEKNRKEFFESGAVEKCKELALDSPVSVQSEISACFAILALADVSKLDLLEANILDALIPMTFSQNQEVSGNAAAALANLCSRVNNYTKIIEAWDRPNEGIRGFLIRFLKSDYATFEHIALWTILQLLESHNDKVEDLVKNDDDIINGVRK

Vac8[40–515]^A51R = molecular target: T3, Vac8[40–515]^A51R (S. cerevisiae, UniProt P39968 40-515, A51R); experiment: SEC
T3 sequence (looked up): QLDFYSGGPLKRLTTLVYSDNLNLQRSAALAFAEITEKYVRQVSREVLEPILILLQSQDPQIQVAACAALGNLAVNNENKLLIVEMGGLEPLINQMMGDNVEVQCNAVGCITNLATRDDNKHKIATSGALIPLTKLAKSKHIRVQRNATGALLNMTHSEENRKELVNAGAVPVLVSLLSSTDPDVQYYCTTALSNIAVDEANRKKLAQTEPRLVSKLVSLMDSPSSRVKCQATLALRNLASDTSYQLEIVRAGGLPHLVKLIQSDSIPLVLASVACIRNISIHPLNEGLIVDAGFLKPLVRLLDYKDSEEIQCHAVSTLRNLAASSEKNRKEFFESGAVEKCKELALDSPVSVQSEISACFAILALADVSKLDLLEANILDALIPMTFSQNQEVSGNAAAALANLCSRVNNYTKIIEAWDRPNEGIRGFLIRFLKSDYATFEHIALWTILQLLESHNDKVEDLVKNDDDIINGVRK

Vac8[40–515]^L55R = molecular target: T4, Vac8[40–515]^L55R (S. cerevisiae, UniProt P39968 40-515, L55R); experiment: SEC
T4 sequence (looked up): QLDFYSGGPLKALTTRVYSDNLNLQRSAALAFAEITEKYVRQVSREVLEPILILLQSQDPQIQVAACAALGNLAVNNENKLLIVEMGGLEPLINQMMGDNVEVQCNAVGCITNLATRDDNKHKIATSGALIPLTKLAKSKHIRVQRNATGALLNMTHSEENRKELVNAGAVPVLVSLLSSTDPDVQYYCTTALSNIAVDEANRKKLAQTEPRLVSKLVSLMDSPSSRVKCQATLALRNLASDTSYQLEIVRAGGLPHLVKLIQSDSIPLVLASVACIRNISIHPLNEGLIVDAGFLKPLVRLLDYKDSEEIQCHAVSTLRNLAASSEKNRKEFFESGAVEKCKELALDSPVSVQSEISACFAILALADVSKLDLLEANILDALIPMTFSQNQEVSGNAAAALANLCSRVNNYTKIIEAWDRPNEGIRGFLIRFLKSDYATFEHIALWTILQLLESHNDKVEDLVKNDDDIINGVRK

Vac8[40–515]^N60R,N62R = molecular target: T5, Vac8[40–515]^N60R,N62R (S. cerevisiae, UniProt P39968 40-515, N60R | N62R); experiment: SEC
T5 sequence (looked up): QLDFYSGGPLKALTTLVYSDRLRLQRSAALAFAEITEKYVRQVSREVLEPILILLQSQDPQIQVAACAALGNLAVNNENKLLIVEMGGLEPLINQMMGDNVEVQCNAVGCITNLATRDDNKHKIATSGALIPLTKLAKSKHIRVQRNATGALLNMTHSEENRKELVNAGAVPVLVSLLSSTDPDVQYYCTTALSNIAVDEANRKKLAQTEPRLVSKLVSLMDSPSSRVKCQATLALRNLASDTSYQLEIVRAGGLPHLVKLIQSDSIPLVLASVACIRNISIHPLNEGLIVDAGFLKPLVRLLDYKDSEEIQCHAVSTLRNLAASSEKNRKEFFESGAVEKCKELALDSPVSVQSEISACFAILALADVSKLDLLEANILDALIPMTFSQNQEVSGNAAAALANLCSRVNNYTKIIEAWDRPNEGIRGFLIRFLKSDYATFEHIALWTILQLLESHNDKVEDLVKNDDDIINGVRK

Measured: binding result

B1: tAtg13 (Atg13 construct comprising residues 567–695) (domain or fragment, S. cerevisiae, UniProt Q06628 567-695, looked up)
chain: GGNSSTSALNSRRNSLDKSSNKQGMSGLPPIFGGESTSYHHDNKIQKYNQLGVEEDDDDENDRLLNQMGNSATKFKSSISPRSIDSISSSFIKSRIPIRQPYHYSQPTTAPFQAQAKFHKPANKLIDNG
binds: all assays above
